Measured values taken from CN117820471A (VAZYME MEDICAL CO LTD; HUNAN NOVAZYME MEDICAL TECH CO LTD, dated 2024).
Values belong to the binder of their own block, whether it stands above or below them.

How the values were obtained:
GFAP-His重组蛋白 [1] = biological target: T1, GFAP-His重组蛋白 (Homo sapiens (Human), UniProt P14136 1-432); assay: chemiluminescence sandwich assay on GFAP-His (Rabbit anti-GFAP mAb on magnetic beads, test antibody labelled with acridinium ester)
T1 construct: Recombinant GFAP expressed in 293F cells; also called GFAP-His蛋白; Glial fibrillary acidic protein
T1 sequence (P14136 other isoform, or with tags, fused parts or gaps limits assumed): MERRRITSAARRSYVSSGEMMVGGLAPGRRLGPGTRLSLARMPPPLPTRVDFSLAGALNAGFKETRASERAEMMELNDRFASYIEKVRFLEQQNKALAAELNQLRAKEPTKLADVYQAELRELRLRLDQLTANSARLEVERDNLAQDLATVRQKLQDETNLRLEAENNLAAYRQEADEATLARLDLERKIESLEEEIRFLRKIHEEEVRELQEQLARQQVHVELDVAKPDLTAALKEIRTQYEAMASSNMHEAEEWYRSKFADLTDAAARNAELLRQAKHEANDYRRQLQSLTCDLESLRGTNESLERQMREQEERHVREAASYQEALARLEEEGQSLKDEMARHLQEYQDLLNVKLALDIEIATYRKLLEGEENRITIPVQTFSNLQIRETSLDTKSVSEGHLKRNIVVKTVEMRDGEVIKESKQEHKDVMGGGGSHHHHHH

GFAP-His重组蛋白 [2] = biological target: T1, GFAP-His重组蛋白; assay: fixed capture antibody in the sandwich ELISA that detects GFAP-His

binding result (GFAP-His重组蛋白 [1]): binds
B1: Anti-GFAP-rRmab-1 (antibody, V domains shown)
VH: QSLEESGGRLVTPGTPLTLTCTSSGFSLSSYYIQWVRQAPGKGLEWIGIIYASGSTYYASWAKGRFTISKTSATVDLKITSPTQEDTATYFCARNDYDSNLIMSIWGPGTLVTVSS
VL: AYDMTQTPASMEVAVGGTVTINCQASQNIGSSLAWYQQKPGQRPKLLIYRASTLASGVPSRFSGSGSGTEFTLTISGLQCDDAATYYCQQHFSIGAVQNVFGGGTEVVVR
notes: the rabbit constant regions are not; It was labelled with acridinium ester in the chemiluminescence sandwich assay; also called GFAP特异性抗体; 优选抗体

binding result (GFAP-His重组蛋白 [2]): binds
B2: Rabbit anti-GFAP mAb (antibody, V domains shown)
VH: QSLEESGGRLVTPGGSLTLTCTVSGIDLTTYTMTWVRQAPGKGLEWIGIISGSGTTYYASWAKGRFTISKTSTTVDLKITSPTTEDTATYFCARDLYGSSDIYNIWGPGTLVTVST
VL: DIVMTQTPASVSAAVGGTVTINCQASESIRNYLSWYQQKPGQPPKLLIFDASTLASGVSSRFKGSGSGTEFTLTISDLECADAATYYCQTYYGVSGFGNAFGGGTEVVVK
notes: Rabbit monoclonal antibody developed earlier, used as the fixed capture antibody (coated on the plate or on magnetic beads) in the sandwich assays; also called 包被抗体; 与之配对的抗体
